B1: Azoarcus group I ribozyme (parent)
chain: GUGCCUUGCGCCGGGAAACCACGCAAGGGAUGGUGUCAAAUUCGGCGAAACCUAAGCGCCCGCCCGGGCGUAUGGCAACGCCGAGCCAAGCUUCGGCGCCUGCGCCGAUGAAGGUGUAGAGACUAGACGGCACCCACCUAAGGCAAACGCUAUGGUGAAGGCAUAGUCCAGGGAGUGGCGAAAGUCACACAAACCGG

Variants of: B1
Experiment: reverse-splicing fitness (ratio to wild type); higher = more active; in vitro selection; Mg2+ level not given
In short: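 An in vitro group I ribozyme library with randomized positions was T7-transcribed and gel-purified. In triplicate, 10 pmol RNA in EPPS pH 7.5 was reacted with 50 pmoles of a 30-nt RNA substrate for 1 h at 37 °C across several added MgCl2 levels (1–48 mM), then stopped with EDTA. Products were reverse transcribed from a substrate-complementary primer, PCR-amplified and sequenced (HiSeq 4000). Fitness is a variant's read proportion after selection over that before, normalised to wild type.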

Row | Variant | reverse-splicing fitness
1 | C82U A111G C150A C169A U176C | 0.0195
2 | C82U A111G C150A C169A U176G | 0.00533
3 | C82U A111U A120C A145U C150G C169G U176G | 0.0048
4 | C82U A111U A120C A145U C150G C169G U176A | 0.00657
5 | C82U A111U A120C A145U C150G C169G U176C | 0.0054
6 | C82U A111U A120C A145U C150G C169U | 0.00819
7 | C82U A111U A120C A145U C150G C169A | 0.00868
8 | C82U A111U A120C A145U C150G C169G | 0.00651
9 | C82U A111U A120C A145U C150U | 0.0196
10 | C82U A111U A120C A145U C150G | 0.0076
11 | C82U A111U A120C A145U C150A | 0.00878
12 | C82U A111G C169U | 0.0128
13 | C82U A111G C169A | 0.0072
14 | C82U A111G C169G | 0.0092
15 | C82U A111G A145G C169A U176A | 0.0185
16 | C82U A111G A145G C169A U176C | 0.022
17 | C82U A111G A145G C169A U176G | 0.00491
18 | C82U A111U A120C A145C C150G C169G | 0.00637
19 | C82U A111U A120C A145C C150G C169U | 0.00848
20 | C82U A111U A120C A145C C150G C169A | 0.00832
21 | C82U A111G A145U C150U C169G | 0.00858

Row | Variant | reverse-splicing fitness
22 | C82U A111G A145U C150U C169A | 0.00819
23 | C82U A111G A145U C150U C169U | 0.0088
24 | C82U A111G C150G C169A U176A | 0.00962
25 | C82U A111G C150G C169A U176G | 0.00562
26 | C82U A111G C150G C169A U176C | 0.0121
27 | C82U A111U A120C A145U C150G C169A U176C | 0.00923
28 | C82U A111U A120C A145U C150G C169A U176G | 0.0051
29 | C82U A111U A120C A145U C150G C169A U176A | 0.00915
30 | C82U A111G C150G U176A | 0.00888
31 | C82U A111G C150G U176G | 0.00391
32 | C82U A111G C150G U176C | 0.0178
33 | C82U A111U A120C A145G C150A C169A | 0.0103
34 | C82U A111U A120C A145G C150A C169G | 0.00791
35 | C82U A111U A120C A145G C150A C169U | 0.0104
36 | C82U A111U A120C A145U C150U C169G U176G | 0.00554
37 | C82U A111U A120C A145U C150U C169G U176A | 0.011
38 | C82U A111U A120C A145U C150U C169G U176C | 0.0115
39 | C82U A111G C150A C169G U176G | 0.00673
40 | C82U A111G C150A C169G U176A | 0.0207
41 | C82U A111G C150A C169G U176C | 0.0199
42 | C82U A111U A120C A145U C150G C169U U176A | 0.00894

Row | Variant | reverse-splicing fitness
43 | C82U A111U A120C A145U C150G C169U U176G | 0.00523
44 | C82U A111U A120C A145U C150G C169U U176C | 0.0122
45 | C82U A111U A120C A145C C150A U176G | 0.00471
46 | C82U A111U A120C A145C C150A U176A | 0.00819
47 | C82U A111U A120C A145C C150A U176C | 0.00753
48 | C82U A111U A120C A145U C150U U176C | 0.0147
49 | C82U A111U A120C A145U C150U U176A | 0.0114
50 | C82U A111U A120C A145U C150U U176G | 0.0051
51 | C82U A111U A120C A145G C169G | 0.00779
52 | C82U A111U A120C A145G C169A | 0.0083
53 | C82U A111U A120C A145G C169U | 0.0112
54 | C82U A111U A120C A145U C169U | 0.0107
55 | C82U A111U A120C A145U C169A | 0.00631
56 | C82U A111U A120C A145U C169G | 0.00727
57 | C82U A111G A145U C150A C169U | 0.0083
58 | C82U A111G A145U C150A C169A | 0.0078
59 | C82U A111G A145U C150A C169G | 0.00745
60 | C82U A111U A120C A145C C150U U176G | 0.00423
61 | C82U A111U A120C A145C C150U U176A | 0.00801
62 | C82U A111U A120C A145C C150U U176C | 0.00856
63 | C82U A111U A120C A145C C169G U176C | 0.0105

Row | Variant | reverse-splicing fitness
64 | C82U A111U A120C A145C C169G U176G | 0.00439
65 | C82U A111U A120C A145C C169G U176A | 0.0202
66 | C82U A111U A120C A145C C150A C169U U176G | 0.00541
67 | C82U A111U A120C A145C C150A C169U U176C | 0.0112
68 | C82U A111U A120C A145C C150A C169U U176A | 0.0149
69 | C82U A111G A145U C150G C169A U176G | 0.00561
70 | C82U A111G A145U C150G C169A U176A | 0.00927
71 | C82U A111G A145U C150G C169A U176C | 0.00932
72 | C82U A111G A145U C150A C169U U176G | 0.00567
73 | C82U A111G A145U C150A C169U U176C | 0.012
74 | C82U A111G A145U C150A C169U U176A | 0.013
75 | C82U A111U A120C A145C C150U C169A U176G | 0.00569
76 | C82U A111U A120C A145C C150U C169A U176A | 0.0088
77 | C82U A111U A120C A145C C150U C169A U176C | 0.00517
78 | C82U A111U A120C A145U C169U U176A | 0.0155
79 | C82U A111U A120C A145U C169U U176G | 0.00395
80 | C82U A111U A120C A145U C169U U176C | 0.0136
81 | C82U A111G A145G C169U U176A | 0.0117
82 | C82U A111G A145G C169U U176G | 0.0046
83 | C82U A111G A145G C169U U176C | 0.0129
84 | C82U A111U A120C A145G C150U | 0.0229

Reference: the RNAGym collection of RNA variant scans (doi:10.1093/molbev/msab373)
